In the DeepSol protein solubility set:

Experiment: soluble on expression in E. coli; label from the status in PepcDB or PDB records

Sequence	soluble on expression in E. coli
MSLKALARFGKAFGGYKMIHVPQPICGPEDVVTEIKAAAICGADMKHYNVDSGSDEFNSIRGHEFAGCIAQVGEKVKDWKVGQRVVSDNSGHVCGVCPACEQGDFLCCTEKVNLGLDNNTWGGGFSKYCLVPGEILKIHRHALWEIPDGVDYEDAAVLDPICNAYKSIAQQSKFLPGQDVVVIGTGPLGLFSVQMARIMGAVNIVVVGLQEDVAVRFPVAKELGATAVVNGSTEDVVARCQQICGKDNLGLVIECSGANIALKQAIEMLRPNGEVVRVGMGFKPLDFSINDITAWNKSIIGHMAYDSTSWRNAIRLLASGAIKVKPMITHRIGLSQWREGFDAMVDKTAIKVIMTYDFDEGHHHHHH	not soluble
KDTIALVVSTLNNPFFVSLKDGAQKEADKLGYNLVVLDSQNNPAKELANVQDLTVRGTKILLINPTRSDAVGNAVKMANQANIPVITLDRQATKGEVVSHIASDNVLGGKIAGDYIAKKAGEGAKVIELQGIAGTSAARERGEGFQQAVAAHKFNVLASQPADFDRIKGLNVMQNLLTAHPDVQAVFAQNDEMALGALRALQTAGKSDVMVVGFDGTPDGEKAVNDGKLAATIAQLPDQIGAKGVETADKVLKGEKVQAKYPVDLKLVVKQ	soluble
MSLTAPHIVDPAGLLGEALSEASPDLMRSLLQTVINALLSADADAVVGAEWGQPTPGRRSQRNGYRHRGLDTRVGTIDVAVPKLRKGTYFPDWLLERRKRAESALITVVADCYLAGVSTRRMDKLVKTLGIDSLSKSQVSRMATDLDEHVEQFRHRPLDSAGPFTFVAADALTMKVREGGRVVNGVVLLATGVNGDGHREVLGMRVVTSETGPAWNEFFADLVARGLAGVRLVTSDAHAGLREAIAANLPGAAWQRCRTHYAANLMSICPKSMWPAVKAMLHSVYDQPDAPAVAAQFDRLIDYVTDKLPAVAEHLSAAREDILAFTAFPKDVWTQIWSNNPAVIWSPAVGVVDVRHEASGSLVLLSGRGYLQPSRKQSLRRKSACYTGGFANLVGEGHHHHHH	soluble
MGSDKIHHHHHHMPSLKLSLTGLQIIKQARSEKGWTIDNPCWLEQASQVLEPGRNWENAEVFAAGVSLATWKRFLKGDAIDASVFKAFCQVLGLNWQDLVERPPNSFIIGTTQIPNIPLFFGRRYELTTLSQAIEQGTRLIAITGIGGMGKTALATKLVESRSSHFSQTLWFSFHHNPPAKDKIPTLVPQTLMVFDGWDGILGGNRGGQYRPEYEPYADFLRTVVQTTHTSCVIITSREQPEGLNILGAGGAVIFPLGGLMEGAIELLQHHQLTFNAQQWITLVNQYGGNPLFLNMAANFIHELFAGDVGEFLASGTLVAGEFAPLVTQWLKQISTLEQILIKSLATKVQGFTRQEILLHLASRAANGDILAALLSLKRRGLIETMKDGELERFYLQPVILKCVQRLF	not soluble
SNASGQQVHRLLGNKLELASTGQTIYHQDINLNNHPWIGDHRVYDTPVIPGVSYIAMTLAAVGVPAAVEDINFQQPLFLAESNTTRETQLMLHTADNVGKQFVEVFSRDGAKQEEWQQHASMSVSENPPPPPTLSVDIPALCEQLRPLDTDTLTEIYASISLVYGPMLQAVRQAWIGEETSLLEIEVPKALAFQLAGEPIHPVLIDACTRLTPDLFDFSSDSGVFWAPWRVKEMTLSHPTPSRFYAYVEEPSRVNEQLQTRSYDIQLLDETGQAFGRINGFTVKRAPSQLFLK	soluble
MNKLYIGNLSENAAPSDLESIFKDAKIPVSGPFLVKTGYAFVDCPDESWALKAIEALSGKIELHGKPIEVEHSVPKRQRIRKLQIRNIPPHLQWEVLDSLLVQYGVVESCEQVNTDSETAVVNVTYSSKDQARQALDKLNGFQLENFTLKVAYIPDEMAAQQNPLQQPRGRRGLGQRGSSRQGSPGSVSKQKPCDLPLRLLVPTQFVGAIIGKEGATIRNITKQTQSKIDVHRKENAGAAEKSITILSTPEGTSAACKSILEIMHKEAQDIKFTEEIPLKILAHNNFVGRLIGKEGRNLKKIEQDTDTKITISPLQELTLYNPERTITVKGNVETCAKAEEEIMKKIRESYENDIASMNLQAHLIPGLNLNALGLFPPTSGMPPPTSGPPSAMTPPYPQFEQSETETVHLFIPALSVGAIIGKQGQHIKQLSRFAGASIKIAPAEAPDAKVRMVIITGPPEAQFKAQGRIYGKIKEENFVSPKEEVKLEAHIRVPSFAAGRVIGKGGKTVNELQNLSSAEVVVPRDQTPDENDQVVVKITGHFYACQVAQRKIQEILTQVKQHQQQKALQSGPPQSRRK	soluble
MKVGQDKVVTIRYTLQVEGEVLDQGELSYLHGHRNLIPGLEEALEGREEGEAFQAHVPAEKAYGPHDPEGVQVVPLSAFPEDAEVVPGAQFYAQDMEGNPMPLTVVAVEGEEVTVDFNHPLAGKDLDFQVEVVKVREATPEELLHGHAHPSGHHHHHH	soluble
MSLRRGIYHIENAGVPSAIDLKDGSSSDGTPIVGWQFTPDTINWHQLWLAEPIPNVADTFTLCNLFSGTYMDLYNGSSEAGTAVNGWQGTAFTTNPHQLWTIKKSSDGTSYKIQNYGSKTFVDLVNGDSSDGAKIAGWTGTWDEGNPHQKWYFNRMSVSSAEAQAAIARNPHIHGTYRGYILDGEYLVLPNATFTQIWKDSGLPGSKWREQIYDCDDFAIAMKAAVGKWGADSWKANGFAIFCGVMLGVNKAGDAAHAYNFTLTKDHADIVFFEPQNGGYLNDIGYDSYMAFY	soluble
MRLSILLLVAAHVANGLFGFGEKKTTQAPKISLGSEISIPHTDEDQDTGEIVIPFNDPSTTTTRRRTATTTGIPVISVGGIGLDRTRSTVDVRSFTTTINPRFTAATKRLPSSDRHSSSGCPNRIDAYTFGPDSDYAFYEQQVFKISNNRISDRTTLVEEFKDGPNQVNGALYDPEREILWLVDGRSVYGYKKDGSDNWKLQSVFPKELPSSIGFTPEAAVRWHNKHQLLLSNGGKFALYDEYWNKSLMTGRTESYFENLPDRVRGISTWNSQGHAHIYTQSLVFEYDSEMKKVTGDGVPLGDFWRC	not soluble
MAFDDLRSFLQALDDHGQLLKISEEVNAEPDLAAAANATGRIGDGAPALWFDNIRGFTDARVAMNTIGSWQNHAISLGLPPNTPVKKQIDEFIRRWDNFPIAPERRANPAWAQNTVDGEEINLFDILPLFRLNDGDGGFYLDKACVVSRDPLDPDNFGKQNVGIYRMEVKGKRKLGLQPVPMHDIALHLHKAEERGEDLPIAITLGNDPIITLMGATPLKYDQSEYEMAGALRESPYPIATAPLTGFDVPWGSEVILEGVIESRKREIEGPFGEFTGHYSGGRNMTVVRIDKVSYRSKPIFESLYLGMPWTEIDYLLEHHHHHH	not soluble
MGSDKIHHHHHHMLDSSSGNAPDTHAAVDSAVLVSLDLNDSDSAENLEELRQLAASDRLAISAVVLGKRLRPDPATFAGSGKVDEIMGAVEQTGASLVIFNHDLSPAQQRNLEQRLRRRVIDRTSLILDIFAQRAKSHEGKLQVELAQLEHLATRLVRGWTHLERQKGGIGLRGPGETQLETDRRLLGKRVKVLKEKLAKFERQRALQRRARRRAQVMSVSLVGYTNAGKSTLFNRLTRGHTYVADQLFATLDATTRKLFIADRGPLVLSDTVGFIRDLPHTLVAAFRATLEETVQADLLLHVVDTSSSNRSEQIDEVNKVLKEIGADRIPQILVLNKTDLVDLPASSPGYQRDEYGRIVQVRLSAKTGEGLEFINLALSEALGERAALREPDNQSEAQDITSGYH	not soluble
DGRITGMIQVAIDVTEQVVARKKLEESESRFRALVNASSDVVYRMNADWTVMRELEGRDFLTPAGTAMADWVETYTYREDRALVKATAAAAIEGKRIFELEHRVLKADGTIGWTFSRAIPILDEQ	not soluble
LREQPQQNECQLERLDALEPDNRIESEGGLIETWNPNNKQFRCAGVALSRATLQRNALRRPYYSNAPQEIFIQQGNGYFGMVFPGCPETFEEPQESEQGEGRRYRDRHQKVNRFREGDIIAVPTGIVFWMYNDQDTPVIAVSLTDIRSSNNQLDQMPRRFYLAGNHEQEFLQYQHQQGGKQEQENEGNNIFSGFKRDFLEDAFNVNRHIVDRLQGRNEDEEKGAIVKVKGGLSIISPPEKQARHQRGSRQEEDEDEEKQPRHQRGSRQEEEEDEDEERQPRHQRRRGEEEEEDKKERGGSQKGKSRRQGDNGLEETVCTAKLRLNIGPSSSPDIYNPEAGRIKTVTSLDLPVLRWLKLSAEHGSLHKNAMFVPHYNLNANSIIYALKGRARLQVVNCNGNTVFDGELEAGRALTVPQNYAVAAKSLSDRFSYVAFKTNDRAGIARLAGTSSVINNLPLDVVAATFNLQRNEARQLKSNNPFKFLVPARESENRASA	soluble
MSLKSNVYYEELAKQNAIKTEFLPPVRGQITDRNGTLLAINDLGFSISIKPYLSIKKSNKGILDKELSELTNLFPDLNASKLAEIYKRNDSYYNQDFIKVVDFIPYDEIISHYSELNLNKTIKIDPVVKRKYPFGKLASHIIGYVGKANLQDVQENEIAKLSNYTGKSGIERYYNDILQGEKGTRVYKVNALNQEVEQLSYTPAMSNDIELTIDIELQSYLTSLFEGNAGAAIIMNVNDGSILAAGSFPEYDLNPFVTGISFKDWDELSNSLDHPFTNKLINGYYPPGSVVKMGVGLSFLNSKNISPSTHYVCNGSIELGGRFFRCWNRSGHGPVDLKHAIKYSCDVYFYNGSLQVGIDQISETLSRIGFGVKTGVDLPSEFVGTLPSKEWKMQRYRQSWFQGDTLNTAIGQGNFLATPMQIARYTAQIAKSGEVIPHFLKSIENNNTTIENQMDENKKEIFTLFEKSQLPYIRDAMYAVANEQGGTSYRYLHNLDVKVAAKTGTAQVVGFSQTDKNRVDEKQFEYYTRSHAWLTSYAPYSKPKYVVTVLLEHGGRNITSGATVAKIYQKMIELGYFKEGHHHHHH	soluble
MIIQDIIEAIEAVCPRAYQESYDNSGVQVGDTKREATGALLCVDVTEAVLEEAIRLGCNLVIAHHPILFKPLKRLTGSSYVERCVELAVRHGLVLYAAHTNADNAPQGLNALLAERFGLLNTRPLEPLQGKLLELVTFVPTEYADAVRQALWQAGAGRLGHYDCCSFSHAGTGTFRAAEGANPFVGAISELHHEAEERISLVLPAYRQGTVLQALHAAHPYELPAVSLIPLANDHPSAGGGIVGDLPSPISEREMLLHIKEVFGLKVLSHSAWRERPLRRMAICGGSGAFMWRRAAQEGADLFLTGEAKYNDFFDAGEHLLLVTIGHYESEEVANELFMRIISQKFPTFATHKSSVATNPVNYL	not soluble
MQMISRITTGISMQYGLSNGTITFDDLIPELLHFGTITPTQISAITTDKLTEIVDGINGLQRKLDSSSEQLEEQLMMFASVYEKTKGVVPGSIIPKDDVYKTQLDALKIKWSKVDSFAKGIVIFLNEMESMEGVTSDDDANIKLSDMAPHLPKFKDWTLEEYNVYAQNQHLRNIHISYPSLNLVYKAVAEFFPYKNSLDGSLLPQVQENINKLNTLAEKIKPEAPMISQLHELFLSRSLKKSVNFKIISGLLNGISDIQMIFTDLKNEWVNKTVDGQAYNLGKALNQLKTLGNNAQQVDLSIVPVEEKIFKDVSNLYQKVNSLKDLTVIVRPLIGTVTGIEIPQSAIRIPAIDVIGQLIDKMKLLSSKLAALEILVHLSKTLRSAKNTIKLEKMKNITTAAEGKLELFKKSSDFKDIYKLILPAKKAAQKLKEAPTITETVTKIQTSFGNLTTFVDDLKSFLDDIKFLENIKGIDSLKPVIEVIRDYRDPKLFKKVDLSTLIGHLPKLKSTLKVLGDYIKGIKTSKHMETEALSTFTNISVGSQVVGMATRGITNMQMMSSQTVDLKIVKELKAVIDEEMKKHQLNPSDVKNLNSLDGLEDELNRIKTAISDFKKSVKPVKSFKLSNYSGFFQDAKKVPGIKINLPAIIGSVEKLKDRLSTRRRRSASASQLDTLLSLLRSLQIYDSAKFSKAFDDSAKSLQALDTSFTAYSKATSKLQGQKGSQSPRSPGSSPTKELSFLENDGEEFKITHHQVLDWNGLNALEDHRGAGLAAMFLMKYETTAIVHCVDGVSRSAVLAGMIIGFQKIIETRGDMNVADLIDDLRKQRAMAITSGLELAFVDAGIFLLFKRMMNNFEEEYPEDLKQMLKDAVQYYKLIAGYQVQQRDNYFKKLDNMGKKQMNQKKSTEEGVDKSKEQGKDATVMKEKSPLAKVN	not soluble
